In the assay the target is Haemophilus surface fibril (Hsf) putative domain 1 (PD1) (H. influenzae). The assay is described as follows: SEC-MALLS; Superdex 200 5/150, buffer C (50 mM Tris, 150 mM NaCl pH 8.0), 0.2 ml/min; LS, dRI and UV detectors; IMAC- and SEC-purified HsfPD1.

A word on the stoichiometry N: it is a count of units in the complex or per binding partner.

“Haemophilus surface fibril (Hsf) putative domain 1 (PD1) (domain or fragment)” registered a stoichiometry N of 3.

The record behind these values is publication PMC5297931.
